This assay concerns the target PfPDI8 (PF3D7_0827900), 3xV5-tagged at the endogenous locus (P. falciparum (3D7)). Put plainly: cross-linking + co-IP.

As to “PfBiP, the Hsp70 Binding immunoglobulin Protein (natural protein)”, the fold increase of co-immunoprecipitated PfBiP with DVSF against without DVSF was determined as 2 fold.

For the origin of these results see doi:10.1101/2020.05.13.093591.
